T1: MPP2, Q14168
T1 sequence (Q14168 180-250, limits assumed, looked up): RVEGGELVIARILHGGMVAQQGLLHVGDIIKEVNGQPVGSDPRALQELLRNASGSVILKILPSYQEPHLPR

T2: RADIL, Q96JH8
T2 sequence (Q96JH8 971-1071, limits assumed, looked up): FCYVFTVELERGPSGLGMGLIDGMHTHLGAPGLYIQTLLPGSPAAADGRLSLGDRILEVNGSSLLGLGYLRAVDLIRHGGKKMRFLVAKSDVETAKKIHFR

T3: LNX2_2, Q8N448
T3 sequence (Q8N448 334-432, limits assumed, looked up): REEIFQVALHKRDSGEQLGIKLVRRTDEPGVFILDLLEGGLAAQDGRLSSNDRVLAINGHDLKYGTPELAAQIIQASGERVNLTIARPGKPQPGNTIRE

T4: GRIP1_2, Q9Y3R0
T4 sequence (Q9Y3R0 145-248, limits assumed, looked up): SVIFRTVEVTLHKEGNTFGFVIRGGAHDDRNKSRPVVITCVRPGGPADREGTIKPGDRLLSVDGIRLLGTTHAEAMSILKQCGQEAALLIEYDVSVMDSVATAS

T5: APBA1_2, Q02410
T5 sequence (Q02410 742-832, limits assumed, looked up): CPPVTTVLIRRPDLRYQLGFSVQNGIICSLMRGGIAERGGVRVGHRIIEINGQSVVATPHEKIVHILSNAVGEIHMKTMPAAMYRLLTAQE

T6: MPDZ_5, O75970
T6 sequence (O75970 695-796, limits assumed, looked up): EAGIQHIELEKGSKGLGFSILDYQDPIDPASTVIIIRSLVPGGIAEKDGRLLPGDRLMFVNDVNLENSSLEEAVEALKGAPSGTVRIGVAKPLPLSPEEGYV

T7: DLG3_1, Q92796
T7 sequence (Q92796 125-227, limits assumed, looked up): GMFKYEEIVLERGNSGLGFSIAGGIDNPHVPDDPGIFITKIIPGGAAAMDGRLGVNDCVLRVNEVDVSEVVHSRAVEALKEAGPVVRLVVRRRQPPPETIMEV

T8: APBA3_1, O96018
T8 sequence (O96018 389-490, limits assumed, looked up): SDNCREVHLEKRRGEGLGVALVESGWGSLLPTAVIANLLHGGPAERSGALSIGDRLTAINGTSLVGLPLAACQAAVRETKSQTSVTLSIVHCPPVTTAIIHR

T9: TX1BP3, O14907
T9 sequence (O14907 10-122, limits assumed, looked up): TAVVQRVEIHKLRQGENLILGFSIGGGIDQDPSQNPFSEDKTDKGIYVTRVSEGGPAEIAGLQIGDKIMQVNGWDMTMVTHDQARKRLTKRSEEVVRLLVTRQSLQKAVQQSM

T10: APBA1_1, Q02410
T10 sequence (Q02410 651-752, limits assumed, looked up): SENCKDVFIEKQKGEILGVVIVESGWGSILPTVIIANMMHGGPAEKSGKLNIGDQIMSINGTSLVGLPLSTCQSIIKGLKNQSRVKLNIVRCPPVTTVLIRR

T11: DLG3_2, Q92796
T11 sequence (Q92796 221-321, limits assumed, looked up): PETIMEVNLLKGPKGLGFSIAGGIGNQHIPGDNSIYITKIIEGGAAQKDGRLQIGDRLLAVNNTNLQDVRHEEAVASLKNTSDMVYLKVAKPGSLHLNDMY

T12: SNTB1, Q13884
T12 sequence (Q13884 107-205, limits assumed, looked up): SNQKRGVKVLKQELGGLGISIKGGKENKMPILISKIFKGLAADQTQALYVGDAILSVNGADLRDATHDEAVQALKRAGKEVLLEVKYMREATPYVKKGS


Key:
Assay in all cases: holdup assay
Design in all cases: key: below the threshold = too weak to quantify, mostly under pKd 3.1 to 4
Settings in all cases: plain residues with an end cap or a label only (N-terminal biotin on a linker: ado-ado)
DLG2_2, Q15700 = biological target: DLG2_2, Q15700
DLG2_2, Q15700, sequence (Q15700 189-283): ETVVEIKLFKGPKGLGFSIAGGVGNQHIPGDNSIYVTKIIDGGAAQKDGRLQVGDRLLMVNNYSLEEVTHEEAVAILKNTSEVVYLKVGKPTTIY

TJP2_1, Q9UDY2 = biological target: TJP2_1, Q9UDY2
TJP2_1, Q9UDY2, sequence (Q9UDY2 24-128): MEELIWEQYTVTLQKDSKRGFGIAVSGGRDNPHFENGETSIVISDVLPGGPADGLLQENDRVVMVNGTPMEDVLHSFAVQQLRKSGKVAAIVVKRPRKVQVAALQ

MPP2, Q14168 = biological target: T1, MPP2, Q14168
CASK, O14936 = biological target: CASK, O14936
CASK, O14936, sequence (O14936 487-570): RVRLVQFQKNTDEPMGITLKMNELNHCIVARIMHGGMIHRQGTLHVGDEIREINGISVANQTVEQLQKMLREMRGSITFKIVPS

TJP1_2, Q07157 = biological target: TJP1_2, Q07157
TJP1_2, Q07157, sequence (Q07157 181-274): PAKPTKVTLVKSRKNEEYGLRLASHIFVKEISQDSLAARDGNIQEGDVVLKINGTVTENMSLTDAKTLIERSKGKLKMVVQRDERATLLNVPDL

RADIL, Q96JH8 = biological target: T2, RADIL, Q96JH8
PDZRN4_1, Q6ZMN7 = biological target: PDZRN4_1, Q6ZMN7
PDZRN4_1, Q6ZMN7, sequence (Q6ZMN7 213-318): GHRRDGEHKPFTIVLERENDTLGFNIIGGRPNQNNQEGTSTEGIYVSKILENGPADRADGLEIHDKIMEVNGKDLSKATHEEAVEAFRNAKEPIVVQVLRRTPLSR

LNX2_2, Q8N448 = biological target: T3, LNX2_2, Q8N448
Inadl_10, Q8NI35 = biological target: Inadl_10, Q8NI35
Inadl_10, Q8NI35, sequence (Q8NI35 1673-1763): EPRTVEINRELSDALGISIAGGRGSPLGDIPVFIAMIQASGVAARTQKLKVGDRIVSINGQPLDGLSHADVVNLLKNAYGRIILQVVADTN

GRIP1_2, Q9Y3R0 = biological target: T4, GRIP1_2, Q9Y3R0
MAGI2_4, Q86UL8 = biological target: MAGI2_4, Q86UL8
MAGI2_4, Q86UL8, sequence (Q86UL8 772-865): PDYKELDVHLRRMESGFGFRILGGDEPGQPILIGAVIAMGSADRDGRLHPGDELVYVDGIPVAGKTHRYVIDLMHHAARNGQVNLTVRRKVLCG

DLG4_3, P78352 = biological target: DLG4_3, P78352
DLG4_3, P78352, sequence (P78352 306-403): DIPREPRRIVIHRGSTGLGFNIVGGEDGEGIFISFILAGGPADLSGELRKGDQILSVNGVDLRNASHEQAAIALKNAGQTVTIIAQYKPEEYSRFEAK

MAGI3_2, Q5TCQ9 = biological target: MAGI3_2, Q5TCQ9
MAGI3_2, Q5TCQ9, sequence (Q5TCQ9 398-503): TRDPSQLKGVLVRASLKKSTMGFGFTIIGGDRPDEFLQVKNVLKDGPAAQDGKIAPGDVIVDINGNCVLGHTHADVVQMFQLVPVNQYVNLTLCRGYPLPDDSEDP

LNX1_2, Q8TBB1 = biological target: LNX1_2, Q8TBB1
LNX1_2, Q8TBB1, sequence (Q8TBB1 371-470): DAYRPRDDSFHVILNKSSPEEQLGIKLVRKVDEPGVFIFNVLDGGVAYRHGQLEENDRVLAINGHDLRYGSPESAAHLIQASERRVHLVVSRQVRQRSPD

APBA1_2, Q02410 = biological target: T5, APBA1_2, Q02410
MPDZ_5, O75970 = biological target: T6, MPDZ_5, O75970
ARHGEF12, Q9NZN5-2 = biological target: ARHGEF12, Q9NZN5-2
ARHGEF12, Q9NZN5-2, sequence (Q9NZN5 other isoform, or with tags, fused parts or gaps): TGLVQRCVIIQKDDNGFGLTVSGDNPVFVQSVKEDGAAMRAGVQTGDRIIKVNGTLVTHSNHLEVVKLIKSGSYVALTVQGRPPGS

DLG3_1, Q92796 = biological target: T7, DLG3_1, Q92796
APBA3_1, O96018 = biological target: T8, APBA3_1, O96018
TX1BP3, O14907 = biological target: T9, TX1BP3, O14907
APBA1_1, Q02410 = biological target: T10, APBA1_1, Q02410
DLG3_2, Q92796 = biological target: T11, DLG3_2, Q92796
PICK1, Q9NRD5 = biological target: PICK1, Q9NRD5
PICK1, Q9NRD5, sequence (Q9NRD5 17-115): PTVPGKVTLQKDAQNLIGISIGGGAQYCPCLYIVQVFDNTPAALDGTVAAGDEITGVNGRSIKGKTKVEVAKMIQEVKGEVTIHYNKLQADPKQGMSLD

LAP2, Q96RT1 = biological target: LAP2, Q96RT1
LAP2, Q96RT1, sequence (Q96RT1 other isoform, or with tags, fused parts or gaps): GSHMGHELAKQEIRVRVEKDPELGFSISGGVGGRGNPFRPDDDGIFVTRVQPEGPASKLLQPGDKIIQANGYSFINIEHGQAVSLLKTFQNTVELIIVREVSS

SNTB1, Q13884 = biological target: T12, SNTB1, Q13884
DLG1_2, Q12959 = biological target: DLG1_2, Q12959
DLG1_2, Q12959, sequence (Q12959 314-412): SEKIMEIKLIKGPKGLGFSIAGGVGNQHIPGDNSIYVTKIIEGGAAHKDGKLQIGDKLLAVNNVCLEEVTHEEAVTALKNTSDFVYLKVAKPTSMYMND

| pKd (DLG2_2, Q15700) | pKd (TJP2_1, Q9UDY2) | pKd (MPP2, Q14168) | pKd (CASK, O14936) | pKd (TJP1_2, Q07157) | pKd (RADIL, Q96JH8) | pKd (PDZRN4_1, Q6ZMN7) | pKd (LNX2_2, Q8N448) | pKd (Inadl_10, Q8NI35) | pKd (GRIP1_2, Q9Y3R0) | pKd (MAGI2_4, Q86UL8) | pKd (DLG4_3, P78352) | pKd (MAGI3_2, Q5TCQ9) | pKd (LNX1_2, Q8TBB1) | pKd (APBA1_2, Q02410) | pKd (MPDZ_5, O75970) | pKd (ARHGEF12, Q9NZN5-2) | pKd (DLG3_1, Q92796) | pKd (APBA3_1, O96018) | pKd (TX1BP3, O14907) | Binder | other results |
| --- | --- | --- | --- | --- | --- | --- | --- | --- | --- | --- | --- | --- | --- | --- | --- | --- | --- | --- | --- | --- | --- |
| below the threshold | below the threshold | below the threshold | below the threshold | below the threshold | below the threshold | below the threshold | below the threshold | below the threshold | below the threshold | below the threshold | below the threshold | below the threshold | below the threshold | 3.62 | below the threshold | below the threshold | below the threshold | below the threshold | 3.93 | NNMAFETTHF [SLC5A12, Q1EHB4] | pKd (APBA1_1, Q02410): below the threshold; pKd (DLG3_2, Q92796): 4.08; pKd (PICK1, Q9NRD5): below the threshold; pKd (LAP2, Q96RT1): below the threshold; pKd (SNTB1, Q13884): below the threshold; pKd (DLG1_2, Q12959): below the threshold |
| below the threshold | below the threshold | below the threshold | below the threshold | below the threshold | below the threshold | below the threshold | below the threshold | below the threshold | below the threshold | below the threshold | below the threshold | below the threshold | below the threshold | below the threshold | below the threshold | 4.24 | below the threshold | below the threshold | 3.84 | SSSVNVSSNL [CXCR1, P25024] | pKd (APBA1_1, Q02410): below the threshold; pKd (DLG3_2, Q92796): below the threshold; pKd (PICK1, Q9NRD5): 4.12; pKd (LAP2, Q96RT1): below the threshold; pKd (SNTB1, Q13884): below the threshold; pKd (DLG1_2, Q12959): below the threshold |
| below the threshold | below the threshold | below the threshold | below the threshold | below the threshold | below the threshold | 3.66 | below the threshold | below the threshold | below the threshold | below the threshold | below the threshold | below the threshold | below the threshold | 3.77 | below the threshold | 4.2 | below the threshold | below the threshold | 3.53 | KKTPVSRSHL [SLC22A3, O75751] | pKd (APBA1_1, Q02410): below the threshold; pKd (DLG3_2, Q92796): below the threshold; pKd (PICK1, Q9NRD5): below the threshold; pKd (LAP2, Q96RT1): below the threshold; pKd (SNTB1, Q13884): below the threshold; pKd (DLG1_2, Q12959): 3.52 |
| below the threshold | below the threshold | below the threshold | below the threshold | below the threshold | below the threshold | below the threshold | 3.52 | below the threshold | below the threshold | below the threshold | below the threshold | 4 | below the threshold | below the threshold | below the threshold | below the threshold | below the threshold | below the threshold | below the threshold | LPPPESESKV [KCNJ9, Q92806] | pKd (APBA1_1, Q02410): below the threshold; pKd (DLG3_2, Q92796): 4.23; pKd (PICK1, Q9NRD5): 4; pKd (LAP2, Q96RT1): 3.85; pKd (SNTB1, Q13884): 4.32; pKd (DLG1_2, Q12959): 3.54 |
| below the threshold | below the threshold | below the threshold | below the threshold | below the threshold | 3.99 | 4.2 | below the threshold | below the threshold | 3.63 | below the threshold | below the threshold | below the threshold | below the threshold | below the threshold | below the threshold | 3.61 | below the threshold | below the threshold | below the threshold | LLQEEWETVM [PTH1R, Q03431] | pKd (APBA1_1, Q02410): below the threshold; pKd (DLG3_2, Q92796): below the threshold; pKd (PICK1, Q9NRD5): 4.22; pKd (LAP2, Q96RT1): below the threshold; pKd (SNTB1, Q13884): 4.24; pKd (DLG1_2, Q12959): below the threshold |

— paper PMC9482650, “Quantitative fragmentomics allow affinity mapping of interactomes” (Nature Communications, 2022)
